# T1: APG30126-L32-nAPG07433.1 (synthetic)
# T1 chain: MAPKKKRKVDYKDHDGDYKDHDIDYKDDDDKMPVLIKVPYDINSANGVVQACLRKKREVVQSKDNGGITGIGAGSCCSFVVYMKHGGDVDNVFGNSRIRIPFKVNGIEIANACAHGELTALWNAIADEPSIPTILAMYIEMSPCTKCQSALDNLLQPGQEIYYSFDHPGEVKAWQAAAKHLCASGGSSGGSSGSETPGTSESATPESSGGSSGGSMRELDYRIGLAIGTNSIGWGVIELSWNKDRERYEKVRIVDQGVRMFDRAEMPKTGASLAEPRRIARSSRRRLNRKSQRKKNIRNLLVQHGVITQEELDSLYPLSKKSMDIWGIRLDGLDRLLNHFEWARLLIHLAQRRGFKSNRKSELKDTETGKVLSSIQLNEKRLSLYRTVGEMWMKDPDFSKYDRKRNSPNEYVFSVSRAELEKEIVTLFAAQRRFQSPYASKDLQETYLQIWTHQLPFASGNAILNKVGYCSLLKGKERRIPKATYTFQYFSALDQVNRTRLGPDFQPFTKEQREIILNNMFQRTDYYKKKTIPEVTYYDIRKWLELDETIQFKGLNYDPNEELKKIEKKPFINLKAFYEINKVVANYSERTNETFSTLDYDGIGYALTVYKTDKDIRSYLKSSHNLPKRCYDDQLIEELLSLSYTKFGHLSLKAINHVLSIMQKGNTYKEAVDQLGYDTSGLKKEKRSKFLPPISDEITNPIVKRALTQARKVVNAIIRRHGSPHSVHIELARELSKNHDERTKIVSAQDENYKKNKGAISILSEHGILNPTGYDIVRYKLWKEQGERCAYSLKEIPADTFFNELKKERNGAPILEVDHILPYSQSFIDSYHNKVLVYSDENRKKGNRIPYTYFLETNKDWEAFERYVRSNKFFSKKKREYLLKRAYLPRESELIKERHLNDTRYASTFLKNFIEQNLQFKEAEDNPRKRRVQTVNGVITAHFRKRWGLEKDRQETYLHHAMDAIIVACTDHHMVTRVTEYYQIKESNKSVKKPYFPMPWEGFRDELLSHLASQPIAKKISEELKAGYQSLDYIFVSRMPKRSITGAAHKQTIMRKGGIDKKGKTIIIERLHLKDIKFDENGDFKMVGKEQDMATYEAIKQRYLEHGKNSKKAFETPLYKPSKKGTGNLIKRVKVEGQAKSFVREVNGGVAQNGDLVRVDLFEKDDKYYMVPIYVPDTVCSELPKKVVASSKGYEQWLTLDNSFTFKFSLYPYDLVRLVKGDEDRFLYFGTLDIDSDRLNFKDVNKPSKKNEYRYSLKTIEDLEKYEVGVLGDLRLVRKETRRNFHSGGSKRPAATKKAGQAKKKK
# T2: APG30127-L32-nAPG07433.1 (synthetic)
# T2 chain: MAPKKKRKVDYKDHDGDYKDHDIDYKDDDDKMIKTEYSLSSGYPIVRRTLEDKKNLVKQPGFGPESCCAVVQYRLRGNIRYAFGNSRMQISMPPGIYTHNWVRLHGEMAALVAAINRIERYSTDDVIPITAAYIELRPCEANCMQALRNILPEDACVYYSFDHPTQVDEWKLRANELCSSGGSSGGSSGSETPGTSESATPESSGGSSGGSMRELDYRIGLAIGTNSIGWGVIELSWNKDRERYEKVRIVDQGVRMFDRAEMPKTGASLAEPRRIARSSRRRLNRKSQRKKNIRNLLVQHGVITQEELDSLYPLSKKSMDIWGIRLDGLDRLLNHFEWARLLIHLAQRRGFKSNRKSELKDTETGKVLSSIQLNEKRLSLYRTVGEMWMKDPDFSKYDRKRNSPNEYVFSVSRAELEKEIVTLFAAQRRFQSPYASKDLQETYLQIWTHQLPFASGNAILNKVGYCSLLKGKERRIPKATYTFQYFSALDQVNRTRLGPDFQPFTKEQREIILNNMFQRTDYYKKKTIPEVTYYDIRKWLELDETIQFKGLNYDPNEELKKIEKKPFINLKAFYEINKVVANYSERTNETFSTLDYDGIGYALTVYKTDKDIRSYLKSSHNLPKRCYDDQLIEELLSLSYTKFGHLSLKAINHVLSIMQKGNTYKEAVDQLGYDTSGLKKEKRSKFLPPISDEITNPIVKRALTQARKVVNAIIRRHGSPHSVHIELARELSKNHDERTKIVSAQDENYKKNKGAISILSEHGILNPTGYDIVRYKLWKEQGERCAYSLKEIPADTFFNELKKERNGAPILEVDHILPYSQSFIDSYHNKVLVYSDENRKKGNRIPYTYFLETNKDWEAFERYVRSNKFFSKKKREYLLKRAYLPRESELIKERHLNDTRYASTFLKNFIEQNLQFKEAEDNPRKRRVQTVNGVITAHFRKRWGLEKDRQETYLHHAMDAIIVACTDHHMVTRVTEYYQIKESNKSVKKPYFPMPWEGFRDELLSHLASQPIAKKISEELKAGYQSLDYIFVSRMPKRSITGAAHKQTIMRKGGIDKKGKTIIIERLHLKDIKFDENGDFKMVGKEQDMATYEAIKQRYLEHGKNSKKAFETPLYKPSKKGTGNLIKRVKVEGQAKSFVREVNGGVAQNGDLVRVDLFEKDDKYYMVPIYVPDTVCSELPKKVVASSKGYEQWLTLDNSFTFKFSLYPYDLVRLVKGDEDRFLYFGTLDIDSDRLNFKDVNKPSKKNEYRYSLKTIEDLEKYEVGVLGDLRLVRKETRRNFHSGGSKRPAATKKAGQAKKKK
# How the values were obtained:
# APG30126-L32-nAPG07433.1 = molecular target: T1, APG30126-L32-nAPG07433.1; test: cell_activity; HEK293FT; PAM SEQ 152; conditions: tags: SV40 NLS, 3xFLAG N-term; nucleoplasmin NLS C-term
# Summary of the method: (§1)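 Editing read out by next-generation sequencing (MiSeq 2×250) of PCR amplicons spanning the target site, analysed for INDELs or % cytosine conversion per position (position 1 nearest PAM).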
# APG30127-L32-nAPG07433.1 = molecular target: T2, APG30127-L32-nAPG07433.1; test: cell_activity; HEK293FT; PAM SEQ 152; conditions: tags: SV40 NLS, 3xFLAG N-term; nucleoplasmin NLS C-term
# Summary of the method: as §1
Binder,activity (APG30126-L32-nAPG07433.1),activity (APG30127-L32-nAPG07433.1)
SGN000930 sgRNA ; SGN000930 target (ssRNA ; dsDNA) RNA: GAACAACUCAAAUGGAAAUGAAUAUGUCAUAGUUCCAUGAAAGCCAAAAGUGGCUUUGAUGUUUCUAUGAUAAGGGUUUCGGCCCGUGGCGUCGGGGAUCGCCUGCCCAUUCCGAUGGGCUUCUCCCCAUUUAUU DNA 1: GAACAACTCAAATGGAAATGAATAT DNA 2: ATATTCATTTCCATTTGAGTTGTTC,1.38 % mutated reads,
SGN000194 sgRNA ; SGN000194 target (ssRNA ; dsDNA) RNA: GCCGCACAGCAUUCAGGUCGGUCAUAGUUCCAUUAAAGCCAAAAGUGGCUUUGAUGUUUCUAUGAUAAGGGUUUCGACCCGUGGCGUCGGGGAUCGCCUGCCCAUUGAAAUGGGCUUCUCCCCAUUUAUU DNA 1: GCCGCACAGCATTCAGGTCG DNA 2: CGACCTGAATGCTGTGCGGC,,9.53 % mutated reads
